The results in this text go back to the DeepSol protein solubility set.

This series is described as follows: soluble on expression in E. coli; label from the status in PepcDB or PDB records.
For the sequence “MSTPHTPKPGPRPGAVPGPRPGAHAARKVVAPNVSAMNQARAFGRVDDDGTVYLIRGGETKKIGSWQAGTPEEGLQHYIHRFEDLATEVALLESRLKSHPNDASHIKEKAGEIRDGLDDAAIIGDLDSLEKRLNSIIDGADSAGEKARELKQQLQEKAIEQKQKLVAEAEEIAEKSTDWKVAGDRIREILDEWKTIKGIDRKTDDELWKLYSRARDSFNRRRGSHFAELDRGRAAARRIKEDLVEKANILKESTDWNDTAHAFKELMNEWKAAGRAPRDVDDKLWAAFKGAQDYFFNARNAVNDQRDREFAANAEAKDALIDEYTPLIDPAQGLESAREKLRELQEKWEAIGYVPRNRVREYEEKIANLEKRVTEAADAQWRRTDPAAQARAAQFISKVEEFTAQAAEAEVKGNTKKAEQLRAQAQQWQEWADAAINAVENR”, the “soluble on expression in E. coli” value was “not soluble”. Take “MGSDKIHHHHHHMTAFSFLGDKYHDHDLFLETLKYALNCEINDLRPEDFPEIRKLPDLVVIGRWNLLDDETPWLKEGDIKILVDYVRSGGKLFVWHSGLARFPESYNGLVGGRFIHHPPQKKVRYYGKDIEFELVDEHYFVDLYSDVEIFLWSESDDGTSIAGWRRRYHNGKILALTPAHSEGLKDQVFRDFLKKVLNTFVNQTSW”: the “soluble on expression in E. coli” value was “not soluble”. “SDLQTRFRPPGAEISIIGLSASLAELVPPSNIENAPQIPRGEDGFFERVGNATREMLVYVGSVVRFIKECVLVFKLGINRRKNVNWTTVSNIATRAGADAVP”: the “soluble on expression in E. coli” value was “not soluble”. In the case of “MGSDKIHHHHHHAGEKLVESAAAPRIINIINFIRQTDYRVENADSLLYETVCEQVKLVNKYDLPATFLLQYDALINPLYQDLLKSKLNAHSEIGAWWELTQPQIEAAGIKWRGEHSWVSHANIAFSTGYTKEERERLVDVYMAKFKEIFGTYPKSVGSWFIDAHTLGYMYDKYKIVASCNCKDQVGTDGYTLWGGYWNQAYYPSRVNAYMPAQTEEGQIPVPIFRMLGSDPIYQYDDGLGQERQGVISLEPVYEKAGMDRRWVDYFLESIVNQPCLAFNYAQAGQENSFTWSNMSKGLEMQIPILDSLRKENKIRVETLGESGAWFKECFKVTPPTAVTTLTDVRGEGNKTVWFNSRYYRANLLWERGTFRFRDIHLFDEGYKSAYMEKPGDGNQFLFYTLPVVDGFMWSEGLDRAGLRIVRLDKDGDKEELTLDHPVVTEIGKDTLVVSAEDSKGHPFKITFYETRFEVAALSKEADLSWALELKVAAGKELPFTVIEDKAVNASFDGFNYVITCKKGHIRKPESGSDYVFRILPSDKEIVINCTNTRLNCTHEK”, the “soluble on expression in E. coli” value was “not soluble”.

Consider “LYRKGGVYVVIGGAGYIGEAWSEYMIRRYQAQIVWIGRSQLNAAIQSKIDRLSALGPEPFYIAADAADKHSLQQAYEQVKKRHPHIHGIVHSAMVLFEQSLEKMKPEEFTAGLAAKIDVSIRMAQVFRQENVDFVLFFSSLVAHIKNVKQSHYASGCTFADAFAHQLSQSWA”, for which the “soluble on expression in E. coli” value is reported as “not soluble”.

With “GPGSMSASGSGVAAIYGRAEEAQNAPVKLQPVPAFELYKAAREEELCSYRSLCRVLCMHSGGKLTKQQRRILEDMREELCLPTERAEAELAAAREDVLVTSVAASGVLKRRQDFFDGVTDVPLDTLSYAESAKDDNNSLYVAQTKVARTEQIVGGVHGRHAAPSKMSIREIHKNLERIGREVAATSSKLLYCTSVVDQQAYRNVLQQKREQLQAMLREVEDAPPDMSGIASVMPSEHVY”, the “soluble on expression in E. coli” value is “soluble”.

As to “MKTITETLNLAPKGKNFLTADWPAPANVKTLITTRNGGVSQGAYQSLNLGTHVGDNPEAVRRNREIVQQQVGLPVAYLNQIHSTVVVNAAEALGGTPDADASVDDTGKVACAVMTADCLPVLFCDRAGTAVAAAHAGWRGLAGGVLQNTIAAMKVPPVEMMAYLGPAISADAFEVGQDVFDAFCTPMPEAATAFEGIGSGKFLADLYALARLILKREGVGGVYGGTHCTVLERDTFFSYRRDGATGRMASLIWLDGNAV”, the “soluble on expression in E. coli” value is given as “soluble”. Next, “MEKADIEAIFARSRFISAMNLEILDIDHAGSRFSVRMPLQDTYERGAPGTKQFHGGALAALIDVVGDFAIGMLVGGGVPTMNLRIDYLRPAVGDYVDGVAVVRKAGKSAAVVDIDILCPAGKLVAIGRGTYVPITGLEHHHHHH”: “not soluble”; “MASKYAVKLQTDFDNPKWIKRHKFMFDYLDINGNGQITLDEIVSKASDDICKNLGATPAQTQRHQDCVEAFFRGCGLEYGKETKFPEFLEGWKNLANADLAKWARNEPTLIREWGDAVFDIFDKDGSGTITLDEWKAYGRISGISPSEEDCEKTFQHCDLDNSGELDVDEMTRQHLGFWYTLDPEADGLYGNGVP”: “soluble”.
